Test results as given in patent US20220195037A1 (AstraZeneca / MedImmune, published 2022).

Biological target: T1, Lectin-like oxidized low density lipoprotein receptor-1 (LOX1), expressed on cells (UniProt P78380 1-273, limits assumed)
T1 construct: whole, on cells; Also used as the target for the functional rows, where it is endogenous LOX1 on patient-derived pancreatic tumor cells, cancer cell lines and cardiomyocytes; also called LOX1-expressing cells; cells overexpressing LOX1
Experiment: Western blot of lysates of human aortic endothelial cells, membrane probed with LX5140110 at 1 µg/ml and anti-human-Fc-HRP
From the text: Inhibition of LOX1 can reduce chemotherapy-induced cardiomyocyte damage. While the combination of chemotherapy and anti-CSC targeted therapies will likely be useful in the clinic, it is known that many chemotherapies have unintended harmful side effects in addition to anti-tumor activity. One such side effect is cardiac damage that can lead to cardiomyocyte death and heart failure. […] First, we examined the expression of LOX1 in response to doxorobucin treatment in human aortic endothelial cells (HAEC) and embryonic stem cell derived cardiomyocytes. Oxidized LDL (Ox-LDL) is a conventional ligand of LOX1 and was added as a control, since previous reports show an increase of LOX1 in response to Ox-LDL in rat cardiac muscle cells (Spallarossa et al., (2005)). Forty-thousand cells were plated in a 96-well plate and treated with media alone or media containing 5 μM doxorubicin for 24 hours. The cells were then scraped and lysed with 1× RIPA buffer containing protease inhibitors on ice for 1 h. Loading buffer was added to each sample followed by heating for 10 min at 90° C. Twelve microliters of sample was loaded per lane in a 4-12% bis-tris gradient gel. The gels were run for 40 min at 200V in MOPS buffer. The proteins were transferred onto a nitrocellulose membrane using iBlot. The membrane was blocked overnight with casein solution. […]

binding result: binds
B1: LX5140110 (antibody, V domains shown)
VH: QVQLVQSGAEVKKPGASVKVSCKVSGYTLTELSMHWVRQAPGKGLEWMGGFDPEDFKYHTHQKFQGRVTMTEDTSTDTAYMELSSLRSEDTAVYYCALVWGTQGKGVRGWDYYYGMDVWGQGTTVTVSS
VL: QSVVTQPPSVSGAPGQRVTISCTGSSSNIGAGYDVHWYQQLPGTAPKLLIYGNSNRPSGVPDRFSGSKSGTSASLAITGLQAEDEADYYCQSYDSSLSGWVFGGGTKLTVL
notes: Monoclonal antibody; It was detected with an anti-human-Fc antibody, and the controls were non-specific IgG1; also called LOX1-specific monoclonal antibody; LOX1 monoclonal antibody
